Test results from patent US20090074782A1 (ONCOMED PHARMACEUTICALS, published 2009).

T1: FLAG-LGR5-CD4™ (human, UniProt O75473 22-564)
T1 construct: domain: transmembrane domain; Transiently expressed on HEK 293 cells together with GFP; also called variant cell-surface LGR5 protein; cell-associated LGR5 construct; not shown: N-terminal FLAG tag; transmembrane domain of CD4
T1 sequence: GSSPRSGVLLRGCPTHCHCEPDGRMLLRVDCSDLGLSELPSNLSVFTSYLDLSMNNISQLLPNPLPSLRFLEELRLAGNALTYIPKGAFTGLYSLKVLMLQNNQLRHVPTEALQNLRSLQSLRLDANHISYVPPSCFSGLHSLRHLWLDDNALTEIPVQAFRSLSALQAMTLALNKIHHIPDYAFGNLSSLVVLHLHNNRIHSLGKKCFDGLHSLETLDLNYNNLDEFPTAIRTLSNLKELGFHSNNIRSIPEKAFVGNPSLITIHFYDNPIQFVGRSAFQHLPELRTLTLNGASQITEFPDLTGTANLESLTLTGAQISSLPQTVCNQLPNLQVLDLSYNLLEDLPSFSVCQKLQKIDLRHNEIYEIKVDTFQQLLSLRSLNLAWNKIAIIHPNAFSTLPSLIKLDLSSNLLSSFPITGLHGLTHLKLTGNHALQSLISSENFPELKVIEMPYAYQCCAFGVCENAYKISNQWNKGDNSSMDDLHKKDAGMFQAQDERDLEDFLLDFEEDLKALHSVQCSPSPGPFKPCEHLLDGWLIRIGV

B1: FZD5-Fc (Fc fusion, UniProt Q13467 27-157, looked up)
chain: ASKAPVCQEITVPMCRGIGYNLTHMPNQFNHDTQDEAGLEVHQFWPLVEIQCSPDLRFFLCSMYTPICLPDYHKPLPPCRSVCERAKAGCSPLMRQYGFAWPERMSCDRLPVLGRDAEVLCMDYNRSEATT
notes: One of the 'various FZD-Fc constructs, including FZD1-10'; not shown: Fc
B2: FZD6-Fc (Fc fusion, UniProt O60353 19-146, looked up)
chain: HSLFTCEPITVPRCMKMAYNMTFFPNLMGHYDQSIAAVEMEHFLPLANLECSPNIETFLCKAFVPTCIEQIHVVPPCRKLCEKVYSDCKKLIDTFGIRWPEELECDRLQYCDETVPVTFDPHTEFLGP
notes: as for B1
B3: FZD10-Fc (Fc fusion, UniProt Q9ULW2 21-154, looked up)
chain: ISSMDMERPGDGKCQPIEIPMCKDIGYNMTRMPNLMGHENQREAAIQLHEFAPLVEYGCHGHLRFFLCSLYAPMCTEQVSTPIPACRVMCEQARLKCSPIMEQFNFKWPDSLDCRKLPNKNDPNYLCMEAPNNG
notes: One of the 'various FZD-Fc constructs, including FZD1-10'; also called soluble FZD10; not shown: Fc
B4: FZD8-Fc (Fc fusion, UniProt Q9H461 28-158, looked up)
chain: ASAKELACQEITVPLCKGIGYNYTYMPNQFNHDTQDEAGLEVHQFWPLVEIQCSPDLKFFLCSMYTPICLEDYKKPLPPCRSVCERAKAGCAPLMRQYGFAWPDRMRCDRLPEQGNPDTLCMDYNRTDLTT
notes: One of the 'various FZD-Fc constructs, including FZD1-10'; also used against FLAG-LGR5-CD4™ cells; also called soluble FZD8; not shown: Fc
B5: FZD3-Fc (Fc fusion, UniProt Q9NPG1 23-143, looked up)
chain: HSLFSCEPITLRMCQDLPYNTTFMPNLLNHYDQQTAALAMEPFHPMVNLDCSRDFRPFLCALYAPICMEYGRVTLPCRRLCQRAYSECSKLMEMFGVPWPEDMECSRFPDCDEPYPRLVDL
notes: as for B1
B6: RSPO1-CD4™ (ligand)
chain: SRGIKGKRQRRISAEGSQACAKGCELCSEVNGCLKCSPKLFILLERNDIRQVGVCLPSCPPGYFDARNPDMNKCIKCKIEHCEACFSHNFCTKCKEGLYLHKGRCYPACPEGSSAANGTMECSSPAQCEMSEWSPWGPCSKKQQLCGFRRGSEERTRRVLHAPVGDHAACSDTKETRRCTVRRVPCPEGQKRRKGGQGRRENANRNLARKESKEAGAGSRRRKGQQQQQQQGTVGPLTSAGPA
notes: domain: transmembrane domain; Transiently expressed on HEK 293 cells together with GFP; also called cell-surface RSPO1; RSPO1-CD4TM; not shown: transmembrane domain of CD4
B7: FZD9-Fc (Fc fusion, UniProt O00144 23-159, looked up)
chain: LEIGRFDPERGRGAAPCQAVEIPMCRGIGYNLTRMPNLLGHTSQGEAAAELAEFAPLVQYGCHSHLRFFLCSLYAPMCTDQVSTPIPACRPMCEQARLRCAPIMEQFNFGWPDSLDCARLPTRNDPHALCMEAPENA
notes: as for B1
B8: FZD4-Fc (Fc fusion, UniProt Q9ULV1 40-170, looked up)
chain: EEERRCDPIRISMCQNLGYNVTKMPNLVGHELQTDAELQLTTFTPLIQYGCSSQLQFFLCSVYVPMCTEKINIPIGPCGGMCLSVKRRCEPVLKEFGFAWPESLNCSKFPPQNDHNHMCMEGPGDEEVPLP
notes: as for B1

Tests used:
RSPO1-CD4™ = target: B6; experiment: FACS, Fc fusion on HEK 293 cells transfected with RSPO1-CD4™ and GFP
Procedure: (§1) To determine the mechanism by which RSPO1 activates beta-catenin signaling, FACS analysis was used to assess binding between RSPO1 and LGR5. In certain embodiments, binding between soluble LGR5 and cell-surface RSPO1 was determined. A cell-surface RSPO1 protein was generated by ligating full-length human RSPO1 to the transmembrane domain of CD4 using standard recombinant DNA techniques (RSPO1-CD4™). HEK 293 cells were transiently transfected RSPO1-CD4™ and GFP. After 48 hours, cells were suspended in ice cold PBS containing 2% FCS and then incubated on ice in the presence of LGR5-Fc, LRP6-ECD-Fc (containing the extracellular domain of human LRP6 fused to an Fc domain), LRP6E1-2-Fc (containing amino acids 1-629 of human LRP6 fused to an Fc domain), or various FZD-Fc constructs, including FZD1-10. […] Only a weak interaction between RSPO1 and the WNT co-receptor LRP6 was detected.

FLAG-LGR5-CD4™ = target: T1, FLAG-LGR5-CD4™; experiment: FACS, Fc fusion on HEK 293 cells transfected with FLAG-LGR5-CD4™ and GFP, with heparin
Procedure: In certain embodiments, binding between soluble RSPO1 and cell-surface LGR5 was determined. A variant cell-surface LGR5 protein was generated by ligating amino acids 22-564 of LGR5 to an N-terminal FLAG tag and to the transmembrane domain of CD4 using standard recombinant DNA techniques (FLAG-LGR5-CD4™). HEK 293 cells were transiently transfected with FLAG-LGR5-CD4™ and GFP. After 48 hours, cells were suspended in ice cold PBS containing 2% FCS and heparin and then incubated on ice in the presence of RSPO1-Fc, FZD8-Fc, or a FLAG antibody as a positive control.

FZD7-Fc = FZD7-Fc (UniProt O75084 33-170); experiment: FACS, Fc fusion on HEK 293 cells transfected with RSPO1-CD4™ and GFP
Procedure: as §1

FZD2-Fc = FZD2-Fc (UniProt Q14332 24-159); experiment: as above
Procedure: as §1

FZD1-Fc = target: T2, FZD1-Fc (UniProt Q9UP38 87-237); experiment: as above
T2 construct: One of the 'various FZD-Fc constructs, including FZD1-10'; not shown: Fc
Procedure: as §1

Binder | binding result (RSPO1-CD4™) | other results
B1 | no binding | –
B2 | no binding | –
B3 | no binding | –
B4 | no binding | binding result (FLAG-LGR5-CD4™): no binding
B5 | no binding | –
B6 | – | binding result (FZD7-Fc): no binding; binding result (FZD2-Fc): no binding; binding result (FZD1-Fc): no binding
B7 | no binding | –
B8 | no binding | –
